We go through 1 molecule from paper PMC7682986, “Talin-activated vinculin interacts with branched actin networks to initiate bundles” (eLife, 2020).

This assay concerns the target T1, full-length human vinculin (human, UniProt P18206-2 1-1066, Alexa Fluor 488 maleimide on cysteines (30% Alexa488-labeled monomers in the TIRFM assay on patterns)).
T1 construct: human vinculin, cDNA isolated from the human A431 cell line, PCR product of 1066 amino acids; FX cloning and 3C cleavage may leave a few extra residues at the ends; also called VCL; source: Sf9 insect cells (baculovirus), purified (Ni IMAC, 3C protease cleavage on the resin, Superdex 200); not shown: GFP, C-terminal, cleaved; 10xHis, C-terminal, cleaved
T1 sequence (looked up): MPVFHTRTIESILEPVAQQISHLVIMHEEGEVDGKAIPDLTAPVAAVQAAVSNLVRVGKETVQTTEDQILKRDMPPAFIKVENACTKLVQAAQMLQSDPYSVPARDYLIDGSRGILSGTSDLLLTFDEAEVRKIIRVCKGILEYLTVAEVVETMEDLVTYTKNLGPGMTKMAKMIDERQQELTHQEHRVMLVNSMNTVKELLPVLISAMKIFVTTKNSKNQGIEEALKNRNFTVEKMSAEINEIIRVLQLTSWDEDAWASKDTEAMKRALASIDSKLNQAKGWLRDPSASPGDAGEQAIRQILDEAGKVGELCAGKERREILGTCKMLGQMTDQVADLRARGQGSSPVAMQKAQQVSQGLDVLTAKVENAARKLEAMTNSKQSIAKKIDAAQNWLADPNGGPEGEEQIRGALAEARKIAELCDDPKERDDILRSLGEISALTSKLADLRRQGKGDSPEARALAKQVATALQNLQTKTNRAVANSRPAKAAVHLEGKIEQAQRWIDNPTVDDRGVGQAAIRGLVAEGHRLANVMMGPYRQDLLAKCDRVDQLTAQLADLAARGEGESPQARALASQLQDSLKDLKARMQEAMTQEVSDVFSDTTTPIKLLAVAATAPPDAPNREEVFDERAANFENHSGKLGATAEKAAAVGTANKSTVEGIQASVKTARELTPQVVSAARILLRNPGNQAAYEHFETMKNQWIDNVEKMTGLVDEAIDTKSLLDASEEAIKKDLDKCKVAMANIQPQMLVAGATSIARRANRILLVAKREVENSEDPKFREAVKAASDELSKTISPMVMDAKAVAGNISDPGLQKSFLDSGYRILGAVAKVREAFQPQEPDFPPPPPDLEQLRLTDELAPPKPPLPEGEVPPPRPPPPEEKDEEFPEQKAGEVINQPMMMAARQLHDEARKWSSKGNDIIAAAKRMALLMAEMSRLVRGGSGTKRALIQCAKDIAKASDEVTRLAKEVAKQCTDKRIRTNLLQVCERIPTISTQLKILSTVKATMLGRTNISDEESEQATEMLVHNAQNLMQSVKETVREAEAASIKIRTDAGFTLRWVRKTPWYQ
The assay can be described thus: TIRF microscopy on protein-coated micropatterns; micropatterns coated with 0.4 µM GST-talin VBS1 (control patterns with BSA); flow of 300 nM inactive vinculin (Alexa488), 0.3 µM actin, Arp2/3 complex and 80 nM WAVE WA; 20 mM Hepes pH 7.0, 40 mM KCl, 0.4% methylcellulose, 0.2% BSA. As to conditions: both partners purified.

B1: GST-talin VBS1 (human talin 1 vinculin-binding site 1, residues 482–636) (domain or fragment, UniProt Q9Y490 482-636, looked up)
chain: RGHMPPLTSAQQALTGTINSSMQAVQAAQATLDDFDTLPPLGQDAASKAWRKNKMDESKHEIHSQVDAITAGTASVVNLTAGDPAETDYTAVGCAVTTISSNLTEMSRGVKLLAALLEDEGGSGRPLLQAAKGLAGAVSELLRSAQPASAEPRQN
notes: construct from C; Le Clainche; Coated on micropatterns as GST-talin VBS1; also called GST-VBS1; VBS1-GST; source: E. coli BL21 (DE3)pLysS, purified (glutathione-Sepharose)
For B1, the binding result is recorded as “binds”.
